How the values were obtained:
[1] = biological target: 天然类风湿因子RF (natural rheumatoid factor; 北京霍尔姆斯(Holmes)生物技术有限公司, 货号HA129AN); experiment: indirect ELISA, RF coated, ascites diluted 1:62500
[2] = biological target: 天然类风湿因子RF (natural rheumatoid factor; 北京霍尔姆斯(Holmes)生物技术有限公司, 货号HA129AN); experiment: indirect ELISA, RF coated, ascites diluted 1:100
[3] = biological target: 类风湿因子RF in clinical false-positive serum samples 9233354 (RF1) and 9233353 (RF2); experiment: cell-based or functional assay
[4] = biological target: 天然类风湿因子RF (natural rheumatoid factor; 北京霍尔姆斯(Holmes)生物技术有限公司, 货号HA129AN); experiment: indirect ELISA, RF coated, ascites diluted 1:12500
[5] = biological target: 天然类风湿因子RF (natural rheumatoid factor; 北京霍尔姆斯(Holmes)生物技术有限公司, 货号HA129AN); experiment: indirect ELISA, RF coated, ascites diluted 1:2500
[6] = biological target: 天然类风湿因子RF (natural rheumatoid factor; 北京霍尔姆斯(Holmes)生物技术有限公司, 货号HA129AN); experiment: indirect ELISA, RF coated, ascites diluted 1:500
[7] = biological target: 天然类风湿因子RF (natural rheumatoid factor; 北京霍尔姆斯(Holmes)生物技术有限公司, 货号HA129AN); experiment: indirect ELISA, RF coated, ascites diluted 1:312500
[8] = biological target: 天然类风湿因子RF (natural rheumatoid factor; 北京霍尔姆斯(Holmes)生物技术有限公司, 货号HA129AN); experiment: indirect ELISA, RF coated, ascites diluted 1:1562500

B1: 单克隆抗体anti-blocker-MAB7 (A3-2) (antibody, V domains shown)
VH: VKLQQSGPGLVKPSQSLSLTCTVTGYSITSDYAWNWIRQFPGNKLEWMGYISYSGSTSYNPSLQSRISITRDTSKNQFFLQLNSVTTEDTATYYCARLANWVFDYWGQGTTLTVSS
VL: DIQMTQSPASLSVSVGETVTITCRASENIYSFLAWYQQKQGKSPQLLVYAATNLADGVPSRFSGSGSGTQYSLKINSLQYEDFGSYYCQHFRGTPYTFGGGTRL
ELISA read-out at ascites dilution 62500 [1]: 0.715 | ELISA read-out at ascites dilution 100 [2]: 2.01 | 干扰的影响降低 (免疫胶体金平台) [3]: 10 倍 | ELISA read-out at ascites dilution 12500 [4]: 1.17 | ELISA read-out at ascites dilution 2500 [5]: 1.52 | ELISA read-out at ascites dilution 500 [6]: 1.82 | ELISA read-out at ascites dilution 312500 [7]: 0.461 | ELISA read-out at ascites dilution 1562500 [8]: 0.195

— patent CN115746131A
